Data taken from paper PMC5615437, “A novel bifunctional acetyl xylan esterase/arabinofuranosidase from Penicillium chrysogenum P33 enhances enzymatic hydrolysis of lignocellulose” (Microbial Cell Factories, 2017).

Substrate: CC(=O)Oc1ccc([N+](=O)[O-])cc1
Experiment: 4-nitrophenol release, Lineweaver-Burk plot
Assay type: biochemical, Penicillium chrysogenum
Details: pH 7, 40 °C, pNPA 0.2-2 mM

B1: rPcAxe (Penicillium chrysogenum) (protein)
chain: AASSGCGKQPTLTNGVHTINGRQYILKVPDNYDSNKPHHLVFGLHWRGGNMNSVANGDSIQPWYGLESRAQGSAILVSPDGKNAGWANTNGEDVALIDAIIQQVEGDLCVDSSSRFATGFSWGGGMSYALACSRAKEFKAVSVLSGGLISGCEGGYDPIAYLGIHGIDDQVLPIDEGVTLANKFVGNNKCQPTNIGKPASGSGGFVRSDFQGCSKPVSFIAYDGGHVGAPLGVGSSLAPDATWEFFMAA
- Km: 465 µM
